From patent US20260242735A1 (UNIVERSIT T BASEL, published 2026)

B1: Refmab #5 (antibody, human IgG1, V domains shown)
VH: QVQLVQSGAEVKKPGASVKVSCKASGYTFTNYDINWVRQAPGQGLEWIGWIYPGDGSTKYNEKFKAKATLTADTSTSTAYMELRSLRSDDTAVYYCASGYEDAMDYWGQGTTVTVSS
VL: DIQMTQSPSSLSASVGDRVTINCKASQDINSYLSWFQQKPGKAPKTLIYRANRLVDGVPSRFSGSGSGQDYTLTISSLQPEDFATYYCLQYDEFPLTFGGGTKVEIK
notes: tested in IgG format
B2: Refmab #5 (antibody, human IgG1, V domains shown)
VH: B1 VH
VL: B1 VL
B3: Refmab #6 (antibody, human IgG1, V domains shown)
VH: QVQLQQPGAEVVKPGASVKMSCKASGYTFTSYYIHWIKQTPGQGLEWVGVIYPGNDDISYNQKFQGKATLTADKSSTTAYMQLSSLTSEDSAVYYCAREVRLRYFDVWGQGTTVTVSS
VL: EIVLTQSPGSLAVSPGERVTMSCKSSQSVFFSSSQKNYLAWYQQIPGQSPRLLIYWASTRESGVPDRFTGSGSGTDFTLTISSVQPEDLAIYYCHQYLSSRTFGQGTKLEIK
notes: tested in IgG format
B4: Refmab #6 (antibody, human IgG1, V domains shown)
VH: B3 VH
VL: B3 VL

Experiments:
human CD33 W22Q = human CD33 W22Q (human, UniProt P20138 18-364); test: flow cytometry, HEK293-T, IgG;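 also: CD33 point mutants transiently expressed, antibody binding measured by fluorescence in duplicate, background subtracted and scaled to binding on wild-type CD33 as 100%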
Chain of human CD33 W22Q (P20138 18-364 W22Q limits assumed): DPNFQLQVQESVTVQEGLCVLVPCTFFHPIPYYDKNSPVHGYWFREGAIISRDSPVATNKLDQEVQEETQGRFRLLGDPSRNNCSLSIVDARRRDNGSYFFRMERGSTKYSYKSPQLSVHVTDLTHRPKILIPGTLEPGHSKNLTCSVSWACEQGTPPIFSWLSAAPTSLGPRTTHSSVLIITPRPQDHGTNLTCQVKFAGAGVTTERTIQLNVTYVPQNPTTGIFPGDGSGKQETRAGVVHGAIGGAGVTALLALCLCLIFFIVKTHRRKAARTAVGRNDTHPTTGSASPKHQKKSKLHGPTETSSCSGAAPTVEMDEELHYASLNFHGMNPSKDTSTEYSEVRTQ
Procedure: (§1) An alanine scan on human CD33 was performed to the determine the residues on CD33 that are involved in binding to the antibodies investigated. […] Briefly, a mutation library of CD33 was created by high-throughput, site-directed mutagenesis. Each residue was individually mutated to alanine, with alanine codons mutated to serine. The mutant library was arrayed in 384-well microplates and transiently transfected into HEK293-T. Following transfection, cells were incubated with the indicated antibodies (IgG or Fab) at concentrations pre-determined using an independent immunofluorescence titration curve on wild type CD33. […] Binding of each antibody to each mutant clone was determined in duplicates. For each point, background fluorescence was subtracted from the raw data, which were then normalized to antibody reactivity with wild type CD33.
(§2) Antibodies were screened for binding to the human CD33 variants in IgG format. […] For each mutation, background fluorescence was subtracted from the raw data, which were then normalized to antibody reactivity with wild-type CD33.

human CD33 F21H = human CD33 F21H (human, UniProt P20138 18-364); test: flow cytometry, HEK293-T, IgG;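 also: CD33 point mutants transiently expressed, antibody binding measured by fluorescence in duplicate, background subtracted and scaled to binding on wild-type CD33 as 100%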
Chain of human CD33 F21H (P20138 18-364 F21H limits assumed): as the sequence (P20138 18-364 W22Q limits assumed) above, with F4H, Q5W counted along it
Procedure: as §1, §2

human CD33 N20G = human CD33 N20G (human, UniProt P20138 18-364); test: flow cytometry, HEK293-T, IgG;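 also: CD33 point mutants transiently expressed, antibody binding measured by fluorescence in duplicate, background subtracted and scaled to binding on wild-type CD33 as 100%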
Chain of human CD33 N20G (P20138 18-364 N20G limits assumed): as the sequence (P20138 18-364 W22Q limits assumed) above, with N3G, Q5W counted along it
Procedure: as §1, §2

human CD33 W22G = human CD33 W22G (human, UniProt P20138 18-364); test: flow cytometry, HEK293-T, IgG;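 also: CD33 point mutants transiently expressed, antibody binding measured by fluorescence in duplicate, background subtracted and scaled to binding on wild-type CD33 as 100%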
Chain of human CD33 W22G (P20138 18-364 W22G limits assumed): as the sequence (P20138 18-364 W22Q limits assumed) above, with Q5G counted along it
Procedure: as §1, §2

human CD33 N20S = human CD33 N20S (human, UniProt P20138 18-364); test: flow cytometry, HEK293-T, IgG
Chain of human CD33 N20S (P20138 18-364 N20S limits assumed): as the sequence (P20138 18-364 W22Q limits assumed) above, with N3S, Q5W counted along it
Procedure: as §1, §2

human CD33 Q24H = human CD33 Q24H (human, UniProt P20138 18-364); test: flow cytometry, HEK293-T, IgG
Chain of human CD33 Q24H (P20138 18-364 Q24H limits assumed): as the sequence (P20138 18-364 W22Q limits assumed) above, with Q5W, Q7H counted along it
Procedure: as §1, §2

human CD33 L23M = human CD33 L23M (human, UniProt P20138 18-364); test: flow cytometry, HEK293-T, IgG
Chain of human CD33 L23M (P20138 18-364 L23M limits assumed): as the sequence (P20138 18-364 W22Q limits assumed) above, with Q5W, L6M counted along it
Procedure: as §1, §2

human CD33 W22L = human CD33 W22L (human, UniProt P20138 18-364); test: flow cytometry, HEK293-T, IgG
Chain of human CD33 W22L (P20138 18-364 W22L limits assumed): as the sequence (P20138 18-364 W22Q limits assumed) above, with Q5L counted along it
Procedure: as §1, §2

human CD33 N20K = human CD33 N20K (human, UniProt P20138 18-364); test: flow cytometry, HEK293-T, IgG
Chain of human CD33 N20K (P20138 18-364 N20K limits assumed): as the sequence (P20138 18-364 W22Q limits assumed) above, with N3K, Q5W counted along it
Procedure: as §1, §2

human CD33 Q24S = human CD33 Q24S (human, UniProt P20138 18-364); test: flow cytometry, HEK293-T, IgG
Chain of human CD33 Q24S (P20138 18-364 Q24S limits assumed): as the sequence (P20138 18-364 W22Q limits assumed) above, with Q5W, Q7S counted along it
Procedure: as §1, §2

human CD33 F21I = human CD33 F21I (human, UniProt P20138 18-364); test: flow cytometry, HEK293-T, IgG
Chain of human CD33 F21I (P20138 18-364 F21I limits assumed): as the sequence (P20138 18-364 W22Q limits assumed) above, with F4I, Q5W counted along it
Procedure: as §1, §2

human CD33 V25S = human CD33 V25S (human, UniProt P20138 18-364); test: flow cytometry, HEK293-T, IgG
Chain of human CD33 V25S (P20138 18-364 V25S limits assumed): as the sequence (P20138 18-364 W22Q limits assumed) above, with Q5W, V8S counted along it
Procedure: as §1, §2

human CD33 Q24E = human CD33 Q24E (human, UniProt P20138 18-364); test: flow cytometry, HEK293-T, IgG
Chain of human CD33 Q24E (P20138 18-364 Q24E limits assumed): as the sequence (P20138 18-364 W22Q limits assumed) above, with Q5W, Q7E counted along it
Procedure: as §1, §2

human CD33 P19W = human CD33 P19W (human, UniProt P20138 18-364); test: flow cytometry, HEK293-T, IgG
Chain of human CD33 P19W (P20138 18-364 P19W limits assumed): as the sequence (P20138 18-364 W22Q limits assumed) above, with P2W, Q5W counted along it
Procedure: as §1, §2

human CD33 F21V = human CD33 F21V (human, UniProt P20138 18-364); test: flow cytometry, HEK293-T, IgG
Chain of human CD33 F21V (P20138 18-364 F21V limits assumed): as the sequence (P20138 18-364 W22Q limits assumed) above, with F4V, Q5W counted along it
Procedure: as §1, §2

human CD33 W22T = human CD33 W22T (human, UniProt P20138 18-364); test: flow cytometry, HEK293-T, IgG
Chain of human CD33 W22T (P20138 18-364 W22T limits assumed): as the sequence (P20138 18-364 W22Q limits assumed) above, with Q5T counted along it
Procedure: as §1, §2

human CD33 N20L = human CD33 N20L (human, UniProt P20138 18-364); test: flow cytometry, HEK293-T, IgG
Chain of human CD33 N20L (P20138 18-364 N20L limits assumed): as the sequence (P20138 18-364 W22Q limits assumed) above, with N3L, Q5W counted along it
Procedure: as §1, §2

human CD33 W22N = human CD33 W22N (human, UniProt P20138 18-364); test: flow cytometry, HEK293-T, IgG
Chain of human CD33 W22N (P20138 18-364 W22N limits assumed): as the sequence (P20138 18-364 W22Q limits assumed) above, with Q5N counted along it
Procedure: as §1, §2

human CD33 D18R = human CD33 D18R (human, UniProt P20138 19-364); test: flow cytometry, HEK293-T, IgG
Chain of human CD33 D18R (P20138 18-364 D18R limits assumed): as the sequence (P20138 18-364 W22Q limits assumed) above, with D1R, Q5W counted along it
Procedure: as §1, §2

human CD33 F21L = human CD33 F21L (human, UniProt P20138 18-364); test: flow cytometry, HEK293-T, IgG
Chain of human CD33 F21L (P20138 18-364 F21L limits assumed): as the sequence (P20138 18-364 W22Q limits assumed) above, with F4L, Q5W counted along it
Procedure: as §1, §2

human CD33 W22R = human CD33 W22R (human, UniProt P20138 18-364); test: flow cytometry, HEK293-T, IgG
Chain of human CD33 W22R (P20138 18-364 W22R limits assumed): as the sequence (P20138 18-364 W22Q limits assumed) above, with Q5R counted along it
Procedure: as §1, §2

human CD33 P19L = human CD33 P19L (human, UniProt P20138 18-364); test: flow cytometry, HEK293-T, IgG
Chain of human CD33 P19L (P20138 18-364 P19L limits assumed): as the sequence (P20138 18-364 W22Q limits assumed) above, with P2L, Q5W counted along it
Procedure: as §1, §2

human CD33 N20E = human CD33 N20E (human, UniProt P20138 18-364); test: flow cytometry, HEK293-T, IgG
Chain of human CD33 N20E (P20138 18-364 N20E limits assumed): as the sequence (P20138 18-364 W22Q limits assumed) above, with N3E, Q5W counted along it
Procedure: as §1, §2

human CD33 Q24T = human CD33 Q24T (human, UniProt P20138 18-364); test: flow cytometry, HEK293-T, IgG
Chain of human CD33 Q24T (P20138 18-364 Q24T limits assumed): as the sequence (P20138 18-364 W22Q limits assumed) above, with Q5W, Q7T counted along it
Procedure: as §1, §2

human CD33 P19D = human CD33 P19D (human, UniProt P20138 18-364); test: flow cytometry, HEK293-T, IgG
Chain of human CD33 P19D (P20138 18-364 P19D limits assumed): as the sequence (P20138 18-364 W22Q limits assumed) above, with P2D, Q5W counted along it
Procedure: as §1, §2

human CD33 Q24V = human CD33 Q24V (human, UniProt P20138 18-364); test: flow cytometry, HEK293-T, IgG
Chain of human CD33 Q24V (P20138 18-364 Q24V limits assumed): as the sequence (P20138 18-364 W22Q limits assumed) above, with Q5W, Q7V counted along it
Procedure: as §1, §2

human CD33 N20D = human CD33 N20D (human, UniProt P20138 18-364); test: flow cytometry, HEK293-T, IgG
Chain of human CD33 N20D (P20138 18-364 N20D limits assumed): as the sequence (P20138 18-364 W22Q limits assumed) above, with N3D, Q5W counted along it
Procedure: as §1, §2

human CD33 W22Y = human CD33 W22Y (human, UniProt P20138 18-364); test: flow cytometry, HEK293-T, IgG
Chain of human CD33 W22Y (P20138 18-364 W22Y limits assumed): as the sequence (P20138 18-364 W22Q limits assumed) above, with Q5Y counted along it
Procedure: as §1, §2

human CD33 W22E = human CD33 W22E (human, UniProt P20138 18-364); test: flow cytometry, HEK293-T, IgG
Chain of human CD33 W22E (P20138 18-364 W22E limits assumed): as the sequence (P20138 18-364 W22Q limits assumed) above, with Q5E counted along it
Procedure: as §1, §2

human CD33 T42K = human CD33 T42K (human, UniProt P20138 18-364); test: flow cytometry on transfected cells, IgG
Chain of human CD33 T42K (P20138 18-364 T42K limits assumed): as the sequence (P20138 18-364 W22Q limits assumed) above, with Q5W, T25K counted along it
Procedure: as §1, §2

human CD33 P48S = human CD33 P48S (human, UniProt P20138 18-364); test: flow cytometry on transfected cells, IgG
Chain of human CD33 P48S (P20138 18-364 P48S limits assumed): as the sequence (P20138 18-364 W22Q limits assumed) above, with Q5W, P31S counted along it
Procedure: as §1, §2

human CD33 P48K = human CD33 P48K (human, UniProt P20138 18-364); test: flow cytometry on transfected cells, IgG
Chain of human CD33 P48K (P20138 18-364 P48K limits assumed): as the sequence (P20138 18-364 W22Q limits assumed) above, with Q5W, P31K counted along it
Procedure: as §1, §2

human CD33 Y50H = human CD33 Y50H (human, UniProt P20138 18-364); test: flow cytometry on transfected cells, IgG
Chain of human CD33 Y50H (P20138 18-364 Y50H limits assumed): as the sequence (P20138 18-364 W22Q limits assumed) above, with Q5W, Y33H counted along it
Procedure: as §1, §2

human CD33 P46H = human CD33 P46H (human, UniProt P20138 18-364); test: flow cytometry on transfected cells, IgG
Chain of human CD33 P46H (P20138 18-364 P46H limits assumed): as the sequence (P20138 18-364 W22Q limits assumed) above, with Q5W, P29H counted along it
Procedure: as §1, §2

human CD33 Y49G = human CD33 Y49G (human, UniProt P20138 18-364); test: flow cytometry on transfected cells, IgG
Chain of human CD33 Y49G (P20138 18-364 Y49G limits assumed): as the sequence (P20138 18-364 W22Q limits assumed) above, with Q5W, Y32G counted along it
Procedure: as §1, §2

human CD33 I47Q = human CD33 I47Q (human, UniProt P20138 18-364); test: flow cytometry on transfected cells, IgG
Chain of human CD33 I47Q (P20138 18-364 I47Q limits assumed): as the sequence (P20138 18-364 W22Q limits assumed) above, with Q5W, I30Q counted along it
Procedure: as §1, §2

human CD33 Y50P = human CD33 Y50P (human, UniProt P20138 18-364); test: flow cytometry on transfected cells, IgG
Chain of human CD33 Y50P (P20138 18-364 Y50P limits assumed): as the sequence (P20138 18-364 W22Q limits assumed) above, with Q5W, Y33P counted along it
Procedure: as §1, §2

Binder	Mean % WT Binding (human CD33 W22Q) [% WT binding]	Mean % WT Binding (human CD33 F21H) [% WT binding]	Mean % WT Binding (human CD33 N20G) [% WT binding]	Mean % WT Binding (human CD33 W22G) [% WT binding]	Mean % WT Binding (human CD33 N20S) [% WT binding]	Mean % WT Binding (human CD33 Q24H) [% WT binding]	Mean % WT Binding (human CD33 L23M) [% WT binding]	Mean % WT Binding (human CD33 W22L) [% WT binding]	Mean % WT Binding (human CD33 N20K) [% WT binding]	Mean % WT Binding (human CD33 Q24S) [% WT binding]	Mean % WT Binding (human CD33 F21I) [% WT binding]	Mean % WT Binding (human CD33 V25S) [% WT binding]	Mean % WT Binding (human CD33 Q24E) [% WT binding]	Mean % WT Binding (human CD33 P19W) [% WT binding]	Mean % WT Binding (human CD33 F21V) [% WT binding]	Mean % WT Binding (human CD33 W22T) [% WT binding]	Mean % WT Binding (human CD33 N20L) [% WT binding]	Mean % WT Binding (human CD33 W22N) [% WT binding]	Mean % WT Binding (human CD33 D18R) [% WT binding]	Mean % WT Binding (human CD33 F21L) [% WT binding]	further results
B1	109	108	96.9	101	95.1	104	90.7	96	105	110	95.7	107	95.6	85.9	104	108	96.3	106	97.4	122	Mean % WT Binding (human CD33 W22R): 104 % WT binding; Mean % WT Binding (human CD33 P19L): 100 % WT binding; Mean % WT Binding (human CD33 N20E): 109 % WT binding; Mean % WT Binding (human CD33 Q24T): 105 % WT binding; Mean % WT Binding (human CD33 P19D): 96.4 % WT binding; Mean % WT Binding (human CD33 Q24V): 97.9 % WT binding; Mean % WT Binding (human CD33 N20D): 97.1 % WT binding; Mean % WT Binding (human CD33 W22Y): 107 % WT binding; Mean % WT Binding (human CD33 W22E): 111 % WT binding
B2	–	–	–	–	–	–	–	–	–	–	–	–	–	–	–	–	–	–	–	–	Mean % WT Binding (human CD33 T42K): 79.5 % WT binding; Mean % WT Binding (human CD33 P48S): 43 % WT binding; Mean % WT Binding (human CD33 P48K): 58.7 % WT binding; Mean % WT Binding (human CD33 Y50H): 7.1 % WT binding; Mean % WT Binding (human CD33 P46H): 69.8 % WT binding; Mean % WT Binding (human CD33 Y49G): 0.8 % WT binding; Mean % WT Binding (human CD33 I47Q): 94.6 % WT binding; Mean % WT Binding (human CD33 Y50P): 43.4 % WT binding
B3	7.6	111	101	8.1	101	100	100	1.1	91.8	80.7	89.3	94.7	89.7	75.5	118	2.6	88.2	5.6	68.3	118	Mean % WT Binding (human CD33 W22R): 1.3 % WT binding; Mean % WT Binding (human CD33 P19L): 103 % WT binding; Mean % WT Binding (human CD33 N20E): 108 % WT binding; Mean % WT Binding (human CD33 Q24T): 97.7 % WT binding; Mean % WT Binding (human CD33 P19D): 105 % WT binding; Mean % WT Binding (human CD33 Q24V): 94.3 % WT binding; Mean % WT Binding (human CD33 N20D): 103 % WT binding; Mean % WT Binding (human CD33 W22Y): 4.1 % WT binding; Mean % WT Binding (human CD33 W22E): 1.7 % WT binding
B4	–	–	–	–	–	–	–	–	–	–	–	–	–	–	–	–	–	–	–	–	Mean % WT Binding (human CD33 T42K): 91.2 % WT binding; Mean % WT Binding (human CD33 P48S): 97.2 % WT binding; Mean % WT Binding (human CD33 P48K): 89.4 % WT binding; Mean % WT Binding (human CD33 Y50H): 92.2 % WT binding; Mean % WT Binding (human CD33 P46H): 107 % WT binding; Mean % WT Binding (human CD33 Y49G): 121 % WT binding; Mean % WT Binding (human CD33 I47Q): 107 % WT binding; Mean % WT Binding (human CD33 Y50P): 98.1 % WT binding
